This note sets out measurements from the DeepSol protein solubility set.

The nature of the series: soluble on expression in E. coli; label from the status in PepcDB or PDB records.
“MGSDKIHHHHHHMSTRMVTLHGRIVLRASIELLTGLHIGGAAGGLEIGGLDKPVIRNPITNQPYIPGSSLKGKLRSLMEKVYGAPQTFRINEGVFIHVPTNPEEYQRYYQIAGVFGTLPNHKQLTIDVPTRLIVRDVPLTRESEQELRRLRTDLPYTEIKWEAAIDRVTSAAAPRQIERVPAGAVFGPAEVVYSLYVGNGEQLSDVIRLFGSVYEAFTYLEDDYLGGMGSRGNGQVRLRDITVLARRLESGRYGELTTIREAKELRELDRNGLLEELQRFFNPA”: the “soluble on expression in E. coli” value is on record as “not soluble”. For “MKDEISNPDLGAIYTTKILGVLLENWPKQTYLCCSEVTGIDFDEESVFDSFSPQPYPKEWEVCRDLIVWLENEGFIRSEGSRGSSFGFFSVEITMSAMTALNQVPDPLDPESTRTLKDTLKDIAKSGSGKLADKIMDKAFFAFVTMLEKSAG” the value was “not soluble”; for “FDSFKIEGRAKNADYVMRTTKIYREAIDSVLDGSYYDKLEYFKKELQKVYNRSYDTGFYFRDINKNHDFQYEIEGNASKYRKIEIGRVVNFYKKVSVAEIELWHDLKIGDTILIIGKTTGCVEEVVKSMQINHKDVEIAKKGERVGVKLNHLVREGDRVYLLKET”, “not soluble”; for “AAPTAIEHMEPPFWWAGMQHKGLQLMVHGRDIGRMEAALDYPGVRLVSPTRVPNANYLFVDLEIGPEAQPGSFDIVFKGDGRSERYRYRLLAREQGSAQRQGFGPGDAIYQIMPDRFANGDPSNDNVAGMREQADRRHGGGRHGGDIRGTIDHLDYIAGLGFTQLWPTPLVENDAAAYSYHGYAATDHYRIDPRYGSNEDFVRLSTEARKRGMGLIQDVVLSHIGKHHWWMKDLPTPDWINYGGKFVPTQHHRVAVQDPYAAQADSENFTKGWFVEGMPDLNQTNPLVANYLIQNNIWWIEYAGLSGLRIDTYGYSDGAFLTEYTRRLMAEYPRLNMVGQEWSTRVPVVARWQRGKANFDGYTSHLPSLMDFPLVDAMRNALSKTGEENGLNEVYETLSLDYLYPEPQNLVLFGGNHDMARMFSAAGEDFDRWRMNLVFLMTMPRIPQFYSGDEILMTSTVKGRDDASYRRDFPGGWAGDKANAFSGAGLTSQQRAAQDLVRKLANWRKNQPVIHNGRLMHFGPEENTWVYFRYNKDKRIMVAMNNNDKPMTLPTARFQEMLKGAPSGVDFLSGKTVGLGRELRLAPKSVVVIELPGLPEA”, “soluble”.

For “MSNTVLVSGASGFIALHILSQLLKQDYKVIGTVRSHEKEAKLLRQFQHNPNLTLEIVPDISHPNAFDKVLQKRGREIRYVLHTASPFHYDTTEYEKDLLIPALEGTKNILNSIKKYAADTVERVVVTSSCTAIITLAKMDDPSVVFTEESWNEATWESCQIDGINAYFASKKFAEKAAWEFTKENEDHIKFKLTTVNPSLLFGPQLFDEDVHGHLNTSCEMINGLIHTPVNASVPDFHSIFIDVRDVALAHLYAFQKENTAGKRLVVTNGKFGNQDILDILNEDFPQLRGLIPLGKPGTGDQVIDRGSTTDNSATRKILGFEFRSLHESVHDTAAQILKKENRL”, the “soluble on expression in E. coli” value is “not soluble”. For “MSLAVEAVIWDFGGVFTTSPFEAFRRYETERGLPKDFIRTVNATDPDANAWARFERAEIDAAAFDGLFRQEALRLGHDVRGADVLPLLYGDLRPSVMAALKTCKAQFKVGCITNNVPTGHGPGMAQSAEKALAVGEIMALFDAVIESSKAGVRKPDPRIYQMMCELLGVAPEACIYLDDLGINCKPAAALGMTAIKVSDERQLLDDLAKATGLAFEGHHHHHH” the value was “soluble”; for “MGHHHHHHSHMNCCGIWPFGKPGVPYKRLADVETDERMEMEIRLGMPPGVLAADLIRSTKDKQVLEQLYLLAVQANNLTEHIKRFTLGEIPEECKNVTRSQLEKLKSVQHIIWNTMISLAAGAISVDEATLPALLDKRAEETVALLEMEKIATAVKLDETAAWATDIAGIVSSQPLATPPSESPDQIALKKATQLSNAVY”, “soluble”. For “MGSDKIHHHHHHENLYFQGMGTDKFNNIKIDKYENLINVLKTGDIFLCSGNYLVSKLIKKVSESMFSHTGIIVKWGEHTLIMESVEDDGVRIVPLEHYIKNYENSNNRYNGSLFIARHELLQNVNDDSEMIRNLIKVGFSLLNSGYDKNEIAQIVARIGLGIGRHEDNNEYICSEFVNECFKKIGVEFLTDSEGFIFPEHIAADHHVLPIAQIE” the value was “soluble”.

As for “MPADIMEKNSSSPVAASVNTTPDKPKTASEHRKSSKPIMEKRRRARINESLSQLKTLILDALKKDSSRHSKLEKADILEMTVKHLRNLQRAQMTAALSTDPSVLGKYRAGFSECMNEVTRFLSTCEGVNTEVRTRLLGHLANCMTQINAMTYPGQPHPALQAPPPPPPGPGGPQHAPFAPPPPLVPIPGGAAPPPGGAPCKLGSQAGEAAKVFGGFQVVPAPDGQFAFLIPNGAFAHSGPVIPVYTSNSGTSVGPNAVSPSSGPSLTADSMWRPWRN”, the “soluble on expression in E. coli” value is recorded as “soluble”.

Turning to “SNVNIDSEQLFTEEKPKDYAQPEVLCHTFELLSNLHKLLPNRTVEVLHSYRSEEDKRKCEKPEFSGIEKILARHQLPKEINLSPKPSHVPSWKRKIINNISGNWKKCRLWQKSIYEPPMGTIIVRWTKKNLQPSEDLKSVIQRLSALGPIISVTPCGRESAVVVFRDAASACKAVSAFQTMSADSMFHCSWQHRFMSKNKTWSRRYPSKIHAEKKEKHP”, the “soluble on expression in E. coli” value is listed as “soluble”. As to “MKMNLSTPFPLGATLDAEGCNFAIYAPANRDILLALFHADGSYETHQLEHEYAGVKHTHISGIHAGQKYGYLIQLNDELHYISDPYARALEGPLHYAPPFDSHKSFDLPKCVVTDTHFDWQNVAKPRIARDEMVLFETHVKGLTQLNPDVEKALRGKYLGLVSQPMLDFYRQQNINTLQLLPIAACMHEPHLLESGKVNYWGYNPYVFMAPDPRYASKDAVNELKTTIRELHRNGIQVILDVVYNHTAEGGTNGPVFNLKALDPNYYLHHGDHYANYTGCGNTVDLSNQAALNLVMDTLRCWVTEYQIDGFRFDLAATLGRRGDEFSKEAAFFKAVAQDPVLREVKLIAEPWDIGPNGYQVGNFPFGWNETNDKLRDITRSFWRGDLGFLKEFATRLMGSRDLYSAANWPYKLTVNYITYHDGFTLQDLVSYKHKHNEANGEQNRDGHGDNRSDNYGFEGDTDSIVIRATRERQKRNFMASLLFAFGIPHILTADVLSHTQKGNNNAYCQDNDISWLNWENNETKQDFREWLAGMVAARQTYMVPFIRAFSGENRNNNRIAWRRVDGKPMEMDDWNRLSSVALHIGIGSDGPEMLYLINQTNAPARFVLPKDRQQDWRLICDTNMRHAQHGHAEGEVLQLPVSMSILHYQPKKKSA”, the “soluble on expression in E. coli” value is listed as “soluble”.

On to “AIARNDLFNREKSRQLSLTPRTEKIEVKHVGKTDPGTVFVMNKNISTPYSCAMHLSEWYCSKSILALVDGQPWDMYKPLTKSCEIKFLTFKDPDPREVNKAYWRSCAMMLGCVIERAFKDDYVVSLLRAPEVPVIAGAFCYDVTLDKRLDEWMPTKENLRSFTKDAHALIYRDLPFETLDVDARVALEIFQHNKYKVDFIEEKASQNPERIVKLHRIGDFIDVSEGPLIPRTSVCFQYEVSAVHNLNPSQPNLIRRFQGLSLPTHLRAQFTIWDKLVGRSRKMVTEDEVRQTENTESTQ”, for which the “soluble on expression in E. coli” value is given as “not soluble”. In the case of “MSSDVAGVKKSSSSSSSTSSPFMFSMLLMFSRSISSTIKISANRILLCCTSSFSTTSGFFKIESNRLTSRSSSGIFSRTACNRSCGNCFSISAVLSFCVAPLCCKSTGRFSSAIYLLIFRSTR”, the “soluble on expression in E. coli” value is recorded as “soluble”. With “MTVSDHPQTVSQPDPESESRPSKTRLKQEMHALQALGERLVELEPARIAELDLPEKLAEALLEARKITSHGARRRHLQFIGKLMRAVDPLPVQEKLDAWQHTGMRHTAWLHQLERWRDRLISDETAVTEFVQTYPHTDVRQLRTLLRNIEKEKLAGKPPHNFRALFQLLRQIIPEIPG”, the “soluble on expression in E. coli” value is on record as “not soluble”. For “QEPFHVVTPLLESWALSQVAGMPVFLKCENVQPSGSFKIRGIGHFCQEMAKKGCRHLVCSSGGNAGIAAAYAARKLGIPATIVLPESTSLQVVQRLQGEGAEVQLTGKVWDEANLRAQELAKRDGWENVPPFDHPLIWKGHASLVQELKAVLRTPPGALVLAVGGGGLLAGVVAGLLEVGWQHVPIIAMETHGAHCFNAAITAGKLVTLPDITSVAKSLGAKTVAARALECMQVCKIHSEVVEDTEAVSAVQQLLDDERMLVEPACGAALAAIYSGLLRRLQAEGCLPPSLTSVVVIVCGGNNINSRELQALKTHLGQ” the value was “soluble”.
